Here are results for three molecules from paper PMC10825016, “New insights into the structure and function of the complex between the Escherichia coli Hsp70, DnaK, and its nucleotide-exchange factor, GrpE” (The Journal of Biological Chemistry, 2023).

A word on the Kd: it is the constant that tells how readily two partners part at equilibrium. As a reminder, the koff is the first-order rate constant of dissociation. High values mean fast dissociation, low ones slow dissociation. In general, kon refers to the second-order rate constant of association. A high value points to faster complex formation.

In assay [1] the target is T1, Wildtype E. coli full-length DnaK (E. coli, UniProt P0A6Y8 1-638).
T1 construct: Escherichia coli Hsp70 DnaK, wildtype, full length; 2H, ILV 13C-methyl labelled and nucleotide free in the NMR experiments
Put plainly: NMR titration; HMQC spectra of 2H, 13C-methyl ILV labelled protein, 25 °C; nucleotide free; 40 μM NBD^1–392 T199A plus 40 μM GrpE or truncated variants, or 60 μM DnaK plus 80 μM GrpE or truncated variants. The settings on record: both partners purified.

In assay [2] the target is T2, DnaK nucleotide-binding domain NBD^1–392 T199A (E. coli, UniProt P0A6Y8 1-392, T199A).
T2 construct: Nucleotide free unless specified; Used unlabelled in SPR and 2H-15N labelled or 2H, ILV 13C-methyl labelled in NMR; also called DnaK NBD; wildtype NBD
Described as above. The settings on record: both partners purified.

The target of another assay is DnaK NBD^1–392 Q260R (E. coli, UniProt P0A6Y8 1-392, T199A | Q260R). Put plainly: SPR; Biacore T-200, NTA sensor chip activated with Ni2+; N-terminal His-tagged GrpE immobilised; nucleotide-free NBD^1–392 T199A or its variants perfused at diverse concentrations; control without GrpE subtracted; equilibrium and kinetic fits. Particulars: both partners purified. (In SPR one partner is held on a chip, and binding of the other changes the refractive index at the surface.)

The target of assay [3] is T2, DnaK nucleotide-binding domain …. The description is as above. The settings on record: both partners purified.
Assay [4] has as its target DnaK NBD^1–392 Δ285 to 295 (E. coli, UniProt P0A6Y8 1-392, T199A | Δ285 to 295). The assay is described as above. Particulars: both partners purified.
In another assay the target is DnaK NBD^1–392 Y285R (E. coli, UniProt P0A6Y8 1-392, T199A | Y285R). The description is as above. The settings on record: both partners purified.
Assay [5] has as its target T1, Wildtype E. coli full-length DnaK. Put plainly: not stated; data not shown; nucleotide-free DnaK/GrpE.

B1: GrpE^69–197 (domain or fragment, E. coli, UniProt P09372 69-197, looked up)
chain: MENLRRRTELDIEKAHKFALEKFINELLPVIDSLDRALEVADKANPDMSAMVEGIELTLKSMLDVVRKFGVEVIAETNVPLDPNVHQAIAMVESDDVAPGNVLGIMQKGYTLNGRTIRAAMVTVAKAKA
notes: lacks the N-terminal disordered tail and a portion of the coiled-coil domain; 2H-labelled for the 1H-15N HSQC experiments; also called truncated GrpE variant; source: E. coli BL21(DE3), purified (Ni-NTA, TEV cleavage, second Ni-NTA)
As to B1, the binding result in assay [1] and in assay [2] was “binds” each time.

B2: N-terminal His-tagged GrpE (natural protein, E. coli, UniProt P09372 1-197, looked up)
chain: MSSKEQKTPEGQAPEEIIMDQHEEIEAVEPEASAEQVDPRDEKVANLEAQLAEAQTRERDGILRVKAEMENLRRRTELDIEKAHKFALEKFINELLPVIDSLDRALEVADKANPDMSAMVEGIELTLKSMLDVVRKFGVEVIAETNVPLDPNVHQAIAMVESDDVAPGNVLGIMQKGYTLNGRTIRAAMVTVAKAKA
notes: Held on the Ni-NTA sensor chip by its His tag in SPR; source: E. coli BL21(DE3), purified (Ni-NTA); not shown: His tag, N-terminal, kept
As to B2, the Kd was 4.1 ± 0.3 nM with DnaK NBD^1–392 Q260R, 3.8 ± 0.6 nM in assay [3], 440 ± 60 nM in assay [4] and 120 ± 10 nM with DnaK NBD^1–392 Y285R. Besides, the koff in the assay with DnaK NBD^1–392 Q260R was 0.0231 s⁻¹; in assay [3] it was 0.021 s⁻¹; in assay [4], 0.0158 s⁻¹; with DnaK NBD^1–392 Y285R, 0.0178 s⁻¹. Besides, the association rate constant (kon) was found to be 5.6e+06 M⁻¹ s⁻¹ with DnaK NBD^1–392 Q260R, 5.9e+06 M⁻¹ s⁻¹ in assay [3], 39000 M⁻¹ s⁻¹ in assay [4] and 24000 M⁻¹ s⁻¹ with DnaK NBD^1–392 Y285R.

B3: GrpE, full-length wildtype, His tag cleaved (natural protein, E. coli, UniProt P09372 1-197, looked up)
chain: B2 chain
notes: Escherichia coli GrpE, nucleotide-exchange factor of DnaK, wildtype, full length; also called full-length GrpE; wildtype GrpE; source: E. coli BL21(DE3), purified (Ni-NTA, TEV cleavage, second Ni-NTA); not shown: His tag, N-terminal, cleaved
B3: the dissociation constant Kd in assay [5] amounted to 3 nM. This lies in the single-digit nanomolar range.
